Results from patent US6835382B2, “Ii peptide therapeutics to enhance antigen presentation” (University of Massachusetts, priority 1996, dated 2004).
Non-standard residues stand in square brackets, D forms with d.

Assays:
[1] = biological target: T1, murine A^k MHC class II allele (Mus musculus, UniProt P01910+P06343); experiment: simultaneous assay, A^k allele (CH27 APC, 3A9 T hybridoma, HEL46-61); format: cell-based; conditions: Table 2; for Times Baseline Response, A^k: AE peptide 64 μM, 0.05 μM HEL46-61, supernatant 1:2; for activity in simultaneous assay in the A^k system, in words: 64 μM
T1 construct: The A20 and CH27 B cell lymphoma lines express H-2^d and H-2^k alleles, respectively; endogenous in cells; host or cells: CH27 B cell lymphoma (mitomycin C-treated)
T1 sequence (P01910 24-256): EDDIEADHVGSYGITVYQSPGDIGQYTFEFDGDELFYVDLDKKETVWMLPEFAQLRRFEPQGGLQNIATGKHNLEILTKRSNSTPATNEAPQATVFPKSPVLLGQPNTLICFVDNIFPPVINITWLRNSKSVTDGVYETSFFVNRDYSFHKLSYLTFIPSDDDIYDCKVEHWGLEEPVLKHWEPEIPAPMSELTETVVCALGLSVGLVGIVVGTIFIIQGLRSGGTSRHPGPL
T1 sequence (P06343 28-263): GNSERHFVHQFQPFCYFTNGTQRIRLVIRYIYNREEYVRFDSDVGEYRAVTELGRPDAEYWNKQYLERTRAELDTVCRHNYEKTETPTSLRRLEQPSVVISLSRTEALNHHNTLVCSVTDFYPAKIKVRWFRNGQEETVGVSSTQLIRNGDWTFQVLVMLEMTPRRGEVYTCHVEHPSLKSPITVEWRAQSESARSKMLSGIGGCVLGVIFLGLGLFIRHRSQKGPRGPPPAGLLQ
Method: (§1) In the “simultaneous assay” the four components of the assay are cultured together for a 24 h period. The components of this primary culture, added at the same time or simultaneously, are: (a) the antigenic peptide, (b) mitomycin C-treated, MHC class II-positive antigen presenting cells (APC) with the MHC class II allele required for binding of the specific antigenic peptide and its presentation to the antigenic peptide-specific T cell hybridoma, (c) an AE101 series effector peptide, and (d) MHC class II allele-restricted T cell hybridoma specific for the antigenic peptide and the MHC class II allele restricting its presentation. At the end of the incubation of this primary culture, an aliquot of its supernatant is transferred into a second culture well for incubation with an interleukin-dependent lymphoblastoid cell line. The degree of stimulation of that second, indicator cell by the interleukins which had been released from the activated T cell hybridoma in the primary culture is measured by quantitating tritiated thymidine deoxyribose {[^3H]TdR} uptake into the DNA of the HT-2 indicator cells of that second culture.
(§2) For these various assays, the following antigenic peptides were used: HEL11-25, hen egg lysozyme 11-25, AMKRHGLDNYRGYSL(A^d) (SEQ ID NO:5); HEL46-61, hen egg lysozyme 46-61, NTDGSTDYGILQINSR(Ak) (SEQ ID NO:6); HEL106-116, hen egg lysozyme 106-116, NAWVAWRNRCK (E^d) (SEQ ID NO:7); PGCC81-104, pigeon cytochrome c 81-104, […] (Ek) (SEQ ID NO:8), and THMCC82-103, tobacco hornworm moth cytochrome c 82-103, […] (Ek) (SEQ ID NO:9). AE101 series peptides were obtained from commercial sources. In general, the purity and composition of each peptide was confirmed by HPLC separation and mass spectrometry. The native protein antigens were HEL, hen egg lysozyme, and PGCC, pigeon cytochrome C. They were obtained from commercial sources.
(§3) For the experiments of these Examples, several T cell hybridomas, which are specific for certain antigenic peptides, were used. The TPc9.1 T hybridoma is specific for pigeon cytochrome C 81-104 peptide presented on the murine class II MHC allele E^k. The TPc9.1 hybridoma responds heteroclitically to tobacco hornworm moth cytochrome c 82-103 on E^k. The 3A9 T hybridoma is specific for hen egg lysozyme 46-61 on A^k. The 9.30.B2 hybridoma is specific for hen egg lysozyme 11-25 on A^d, and the G28.C9 hybridoma is specific for hen egg lysozyme 106-116 on E^d. The A20 and CH27 B cell lymphoma lines express H-2^d and H-2^k alleles, respectively.
(§4) Antigenic peptide-specific T cell activation was measured by the following procedure. Mitomycin C-treated A20 cells (A^dE^d) or CH27 cells APC (A^kE^k) were generated by incubating 5×10^6 cells/mL for 20 min at 37° C. with 0.025 mg/mL of mitomycin C (Sigma) in Dulbecco's Modified Eaglel's Medium (DMEM)/10 mM N-2(hydroxyethylpiperazine-N″[2-ethanesulfonic acid] (HEPES), followed by two washes with four volumes of DMEM-5% fetal calf serum (FCS), 10 mM HEPES. Fixed APC were generated by treating 1×10^6 cells/mL for 5 min with 0.5% paraformaldehyde in PBS (pH 7.2), followed by two washes with four volumes of DMEM-10% FCS, 10 mM HEPES. T cell hybridomas were irradiated 2200 rads before each assay.
(§5) For the “simultaneous assay”, 5×10^4 mitomycin C-treated APC, 5×10^4 T hybridoma cells and a submaximal concentration of antigenic peptide were cultured with and without serial 4-fold dilutions of each AE101 series peptide, usually at 64 μM, 16 μM, 4 μM, and 1 μM, at pH 7.2-7.4, in complete DMEM-5% FCS, 10 mM HEPES, 1×nonessential amino acids (Sigma), 1 mM sodium pyruvate, 2 mM L-glutamine, 100 U/mL penicillin G, 100 μg/mL streptomycin sulfate, 5×10^−5 M 2-mercaptoethanol (2-ME). Wells containing only T hybridoma cells (T)+APC were included to monitor for background T cell activation; and wells containing T+APC+AE101 series peptide were included to monitor for non-specific T hybridoma activation by each AE101 series peptide. […]

[2] = biological target: T2, murine A^d MHC class II allele (Mus musculus, UniProt P01921+P04228); experiment: simultaneous assay, A^d allele (A20 APC, 9.30.B2 T hybridoma, HEL11-25); format: cell-based; conditions: Table 2; for Times Baseline Response, A^d: AE peptide 64 μM, 0.05 μM HEL11-25, supernatant 1:2
T2 construct: The A20 and CH27 B cell lymphoma lines express H-2^d and H-2^k alleles, respectively; endogenous in cells; host or cells: A20 B cell lymphoma (mitomycin C-treated)
T2 sequence (P04228 24-256): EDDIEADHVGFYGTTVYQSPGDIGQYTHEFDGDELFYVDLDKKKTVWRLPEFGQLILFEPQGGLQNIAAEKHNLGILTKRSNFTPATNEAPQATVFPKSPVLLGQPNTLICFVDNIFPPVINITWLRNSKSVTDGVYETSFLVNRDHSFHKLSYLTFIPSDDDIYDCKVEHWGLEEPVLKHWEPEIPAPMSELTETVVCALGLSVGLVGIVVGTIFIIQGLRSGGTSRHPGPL
T2 sequence (P01921 28-265): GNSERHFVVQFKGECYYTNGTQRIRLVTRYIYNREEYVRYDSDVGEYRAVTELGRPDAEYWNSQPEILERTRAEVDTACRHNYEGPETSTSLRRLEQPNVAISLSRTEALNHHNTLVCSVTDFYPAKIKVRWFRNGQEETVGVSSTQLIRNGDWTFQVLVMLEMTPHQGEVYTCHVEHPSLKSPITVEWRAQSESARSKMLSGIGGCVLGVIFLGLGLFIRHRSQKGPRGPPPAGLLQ
Method: as §1, §2, §3, §4, §5

HLA-DR1 molecules = experiment: release of biotin-labeled hMBP(90-102) from HLA-DR1 in the presence of unlabeled hMBP (assay II); format: binding, human; conditions: for Relative Release, With unlabeled hMBP(90-102), 1 μM / Relative Release, With unlabeled hMBP(90-102), 64 μM: Table 37, unlabeled hMBP(90-102) 250 μM; for Relative Release, With unlabeled hMBP(90-102), 1 μM: AE101 series compound 1 μM; for Relative Release, With unlabeled hMBP(90-102), 64 μM: AE101 series compound 64 μM

Substance	Times Baseline Response, A^k [1]	Times Baseline Response, A^d [2]	activity in simultaneous assay in the A^k system, in words [1]	other results
Ac-DSLRMKLPKSAK-NH2 [AE154]	1.0	1.1		
Ac-LDSLRMKLPKSAK-NH2 [AE153]	1.0	1.2		
Ac-LQLDSLRMKLPKSAK-NH2 [AE151]	0.5	1.1	inhibitory	
Ac-LR L KLPK-NH2 (Ac-LRLKLPK-NH2; not fully specified; printed as Ac-LR L KLPK-NH2) [AE206]				Relative Release, With unlabeled hMBP(90-102), 1 μM (HLA-DR1 molecules): 0.03; Relative Release, With unlabeled hMBP(90-102), 64 μM (HLA-DR1 molecules): −0.29
Ac-LRMK Y PK-NH2 (Ac-LRMKYPK-NH2; not fully specified; printed as Ac-LRMK Y PK-NH2) [AE235]				Relative Release, With unlabeled hMBP(90-102), 1 μM (HLA-DR1 molecules): 0.48; Relative Release, With unlabeled hMBP(90-102), 64 μM (HLA-DR1 molecules): 0.6
Ac-LRMKLPK-NH2 [AE114]				release of antigenic peptide from HLA-DR1 in presence of second antigenic peptide, in words (HLA-DR1 molecules; excess second antigenic peptide): can catalyze the release of antigenic peptide from the antigenic peptide binding site only in the presence of excess quantities of a second antigenic peptide
Ac-LRMKLPKSAK-NH2 [AE110]	0.8	0.7	inactive	activity in simultaneous assay in the A^d system, in words ([2]; 64 μM): not active
Ac-NLQLDSLRMKLPKSAK-NH2 [AE150]	0.0	1.0	inhibitory	
Ac-QLDSLRMKLPKSAK-NH2 [AE152]	0.5	0.9	inhibitory	
Ac-SLRMKLPKSAK-NH2 [AE155]	1.0	0.8		
Ac-YRMKL hydrP KSAK-NH2 (Ac-YRMKL[hydrP]KSAK-NH2) [AE143]				Relative Release, With unlabeled hMBP(90-102), 1 μM (HLA-DR1 molecules): 0.35; Relative Release, With unlabeled hMBP(90-102), 64 μM (HLA-DR1 molecules): 0.21
Ac-YRMKLPKSAK-NH2 [AE109]	1.2	0.9		
